Measured values taken from publication PMC4980823 (Science (New York, N.Y.), 2016).
Like-named read-outs stand apart in the source and are kept apart here.

B1: Rpn13 Pru domain (amino acids 1–150), no substitutions (domain or fragment, yeast, UniProt O13563 1-150, looked up)
chain: MSMSSTVIKFRAGVCEYNEDSRLCTPIPVQGEIEIKPNEEEELGFWDFEWRPTEKPVGRELDPISLILIPGETMWVPIKSSKSGRIFALVFSSNERYFFWLQEKNSGNLPLNELSAKDKEIYNKMIGVLNNSSESDEEESNDEKQKAQDV
B2: Rpn1 (412–625) (domain or fragment, yeast, UniProt P38764 412-625, looked up)
chain: GDGMTSAVASIGSIYQWNLDGLQQLDKYLYVDEPEVKAGALLGIGISASGVHDGEVEPALLLLQDYVTNPDTKISSAAILGLGIAFAGSKNDEVLGLLLPIAASTDLPIETAAMASLALAHVFVGTCNGDITTSIMDNFLERTAIELKTDWVRFLALALGILYMGQGEQVDDVLETISAIEHPMTSAIEVLVGSCAYTGTGDVLLIQDLLHRLT
B3: Rad23 UBL domain (amino acids 1–78) (domain or fragment, yeast, UniProt P32628 1-78, looked up)
chain: MVSLTFKNFKKEKVPLDLEPSNTILETKTKLAQSISCEESQIKLIYSGKVLQDSKTVSECGLKDGDQVVFMVSQKKST

What was measured:
ubiquitin [1] = target: T1, ubiquitin (UniProt P0CG48 1-76); experiment: NMR titration
dynamic light scattering = target: the molecule itself; experiment: dynamic light scattering
ubiquitin [2] = target: T1, ubiquitin; experiment: NMR titration; remark: listed apart in the source
Rpn1 (412–625) = target: B2; experiment: ITC

B1
binding result (ubiquitin [1]): binds

B2
binding result (dynamic light scattering): binds
binding result (ubiquitin [2]): binds

B3
Kd (Rpn1 (412–625)): 64 ± 25 nM
